The record followed here is a protein production outcome set (Wang et al. 2014).

This data set can be described thus: label from the status in PepcDB records.
On to “MKHLVICIALLTVGACCFAQQKKVASHKAASGNPVFQGWYADPEGIIYDDTYWIFPTWSDLYENQTFFDCFSSKDLVNWTKHASVLDTTAVKWAKKAMWAPSVIRKNGKYYIFFGANDVHEGEIGGIGVAVSDRPEGPYKDLLGKPLINEIVNGAQPIDQFVYNDNGHYYMYYGGWGHCNVVQLNDDFTGLVPFEDGTVYKEVTPENYVEGPFMFKKDGKYYFMWSEGGWGGPDYSVAYAISDSPFGPFKRVAKILQQDPSVATSAGHHSLLHAPGTDDYYIVYHRRPLNDNARDHRVTCIDKMTFDKDGFINPVKMTFEGVPAQKIKKSKKK”, for which the protein production entry is listed as “failed”. For “MKHYEVEILDAKTREKLCFLDKVEPHATIAEIKNLFTKTHPQWYPARQSLRLDPKGKSLKDEDVLQKLPVGTTATLYFRDL” the value was “not failed”; for “MKIAIIRKIPTRPEQISRPSHSARAGPETHCSMPCGFAASRKAGRIAVKETIKEIVMGMLVEGVWKDVWYDTKETKGHFKRSASQFRNWVTVDGAVGPSGEGGFEAEKDRYHLYVSFACPWAHRTLIFRKLKKLEDLISVSVVDPLMLENGWEFKPEGERTPGATQDHLFGSSTLWQVYTKADPTYSGRVTVPVLWDKKRGTIVSNESAEIIRMFNVAFNDLTGSDADYYPKALRAEIDALNDVIYDTVNNGVYKAGFATTQDAYQQNAVKVFETLDMLEDRLKDRRFLFGSEQTEADWRLFTTLVRFDPVYVGHFKCNIRRIHDYPHLTGYLRDLYQTPGVPDTVDMRHIKEHYYRSHRTINPTGIVPIGPELDLTMAHGREALS”, “failed”; for “MKIAILYREEREKEGEFLKEKISKEHEVIEFGEANAPGRVTADLIVVVGGDGTVLKAAKKAADGTPMVGFKAGRLGFLTSYTLDEIDRFLEDLRNWNFREETRWFIQIESELGNHLALNDVTLERDLSGKMVEIEVEVEHHSSMWFFADGVVISTPTGSTAYSLSIGGPIIFPECEVLEISPIAPQFFLTRSVVIPSNFKVVVESQRDINMLVDGVLTGKTKRIEVKKSRRYVRILRPPEYDYVTVIRDKLGYGRRIE”, “not failed”. For the sequence “MKIAIVGSGNGAVTAAVDMVDKGHDVRLYCRNESISKFDVALEKGGFDFYNEGEEKFIEFTDISDDMEYVLDGADIVQVIIPSSFIEYYAKVMSKFVTNDHLIFFNIAASMGSIRFMNVLEDRHIDVHPHFAEANTLTYGTRVDFNNAKVDLSLNVRRVFFSTFDRSELNESYEKVSKIYDYLVKEESLLKTNL”, the protein production result is reported as “failed”. As for “MKIALINENSQASKNHIIYDSLKEATDKKGYQLFNYGMRGEEGESQLTYVQNGLMAAILLNTKAVDFVVTGCGTGVGAMLALNSFPGVVCGLAVDPTDAYLYSQINGGNALSIPYAKGFGWGAELTLKLMFERLFAEEMGGGYPRERVIPEQRNARILNEVKQITHNDLMTILKIIDQDFLKDTISGKYFQEYFFENCQDDEVAAYLKEVLA”, the protein production entry is given as “failed”.

Take “MKIATTSSAFDLLPKDQKYKTKRVSYNDFSDLSFLPVVNPKIKRQKKTLEEEVDSTSKAKSSRTSLTKSVTTTTKLTKPEETITASSKECLQETKTNKKPDLRDLIAKAQEKIQNKREINHRREYITRQRIAARLALNQMVATVSFDDHLNYHREMEQRGYTFIQDQVDNLNMFSLWSRSDYNGITNSVLETSNTTMRSDEDSSRKKQQIIKKKSNTFPTDVKEH”: the protein production result is given as “failed”.

For “MKIATYNVRVDTEYDQDWQWSFRKEAVCQLINFHDWSLCCIQEVRPNQVRDLKAYTTFTCLSAEREGDGQGEGLAILYNEQKVQAIDTGYFWLSETPQQPSIHPEAGCPRIALWGLFKETTQNTPFLVINVHLDHISAHARLAGMTVILEELHDKIAQYPTLLMGDFNAESGEEVHQLVQKKFQDSKNLATHYGPRGTFQNFTYTKPWAELEEIDYIYVKGWQVQQTASLTDSIDGRFPSDHFPLEAEVCIEE”, the protein production entry was “failed”. With “MKIAVVGGTGLVGQGILLELSKDTTLELHSISRNGKRPNSIAGVNYHSFDLAHDTSWHSLLQTSDWVIDCVGILLPNKSKNQTYENSSIEPAKLIIDSIANFDNKFLFISANSAPFFLNNYLHAKRTVENYASRKLGNRAISVYPGLVYSKFRRSNYYPAVILDFLLKFKLFSFLRKFRPISRERFAKEIHYIIEGKNSSLTYRI”, the protein production entry is “failed”. “MKIEHVALWTTNLEQMKQFYVTYFGATANDLYENKTKGFNSYFLSFEDGARLEIMSRTDVTGKTTGENLGWAHIAISTGTKEAVDELTEKLRQDGFAIAGEPRMTGDGYYESVVLDPEGNRIEITW”: the protein production result is given as “not failed”. In the case of “MKIFKKSDISGIFHELGILISTIGFIMLLPSFIGIYFHEPFFYFLFPSLFFMILGLLINKITKPISVKLKHAMVISALAWLMASLIGAIPFYIGIEYFSYLDGVFESMSAWTTTGFSIVGDVESLPRTLQFWRSFEQWIGGVGVLAMVITILSKAGASAYYRAEAREEKIMPSTIGTIKKIWQIYLLYTTIGICLLYLSGLNLWSALNICMCGISTGGMSISNQSFPFNNFAKIIMTLIMYIGGVVSFSVHHNVLTGRRVDDIQTKTSIPILFFAAFVITLTSGIDPLDSLFTVVSAMTSTGFSSVQISSLTNISIAVLIFVMAIGGATGTTTGGIKLIRLVIMAKGFYYRLKEVVSPGNAIIYKKIGKNQLSDFLILDAFIIAFAYIIHYLFGTLVLISLGYDPFLSVFESVSLVANMGLSVDIVNHSLHPIAKILGVFSMWVGRLEIIPIYVLIILPLYLKLKDVGKNKISKNRKL”, the protein production entry was “failed”.

With “MKIGIVIPAHNEEQHLSACLQSIQQAIQHTGHEQVEILVVLDSCTDQSRSVVESHQVNWIECNFACVGKARDLGIRQLIDQGVIWVACTDADTIVDSDWILCQMLHQPTDAICGVVTLDDLSHLSVQQQQKYLAHYQDSMDHQHIHGANLSFSAEAYIQAGGFEPIPCHEDVSLIEKFIKQCCKVTRSNLVRVTTSSRLNGRAPEGLSYFLKHL”, the protein production entry was “failed”. In the case of “MKIINIGVLAHVDAGKTTLTESLLYTSGAIAESGSVDTGTTRTDTTFLERQRGITIQTAVTSFQWKDIKVNIIDTPGHMDFLAEVYRSLSVLDGAILLISARDGVQAQTRILFHALNKMGIPTIFFINKIDQNGIDLSTVYQDIKEKLSMEIIIKQKVELHPNMCVMSCTEPEQWDVVIEGNDYLLEKYTLGKSLEILELEQEEIRRFQNCSLYPVYHGSAKSNIGIEQLIEVITNKFYSSTYRKKSELCGNVFKIEYSEERQRLAYVRLYGGILHLRDSVRISEKEKIKITEMYTSINGELCKIDKAYSGEIVILQNEFLKLNSVLGDTKLLPQRERIENPLPLLQTTVEPSKPQQREMLLDALLEISDSDPLLQYYVDSTTHEIILSFLGKVQMEVTCALLQEKYHVEVKIKKPTVIYMERPLKKAEYTIHIEVPPNPFWASIGLSVAPLPLGSGVQYESSVSLGYLNQSFQNAVMEGIRYGCEQGLYGWNVTDCKICFKYGLYYSPVSTPADFRMLAPIVLEQVLKKAGTELLEPYLSFKIYAPQEYLSRAYNDAPKYCANIVDTQLKNNEVILSGEIPARCIQEYRNDLTFFTNGRSVCLTELKGYYVTTGESVCQPRRPNSRIDKVRYMFNKIT”, the protein production entry was “failed”. As to “MKIITIEEHFESEVITNEINKVTGNLVSGQVSPEMFQYMQKELPSAMEMQDTEKRLAFMDQHGIDMQVLSYGNSSPQNLGPKISVALCKRANDELAKVIQQNPTRFAGFAVLPVGSPEDAAIELKRAVEELGFKGALVKGQFENKYFDNSFYYPIFEMAEKLDVPISFHPSFIPEPITEQYFASDAWSDVVTGVFSSAGFGWHMDVGIQVVRMILSGIFDKLPNLKIITGHLGEMVPMFLNRMDDTLGHWTTLERKISDYYRTNVYVTPSGLLYKNEWKFLLNELDENHLIYALDYPFVKTENAGTFLDTLDLTDEVKAKIAHENAEKLLHL”, the protein production result is on record as “not failed”. Take “MKILNIFDAVRDGTFQDFKNFYEGNINVISGNLDLNLLCMAVTNDKNPEEKLQIIKFLFAEGIDVNYATQKEKRNALHLFYFCVLRPTIEYEMEITNLFIKHGVNVNATDKYNAIPLKYAITINNLPTSDNKEMYQLLLNKGSDYNLKDGFGKSCLDYAKEYSWRNDFLDIVKEYENSKK”: the protein production result is on record as “failed”. “MKILSIHDLQIIRKRAEHHLSLREESNEKVSEKCCGLASGTTHLQILICGGTGCKASSSQGITENLQKAIERNGITDKVDVITVGCFGFCEKGPIVKIIPDNTFYTQVTPEDAEEIISEHIIGGRRIERLLYIDPKTEQTVSDSKHMDFYRKQLRIALRNCGFIDSENIEEYIAREGYFALADCLLNKQPADVIDIIKRSGLRGRGGGGFPTGLKWEFASKQVSNVKYVVCNADEGDPGAFMDRSIMEGDPHSIVEAMCICGYSIGSSKGLVYIRAEYPLAINRLKKAIEQAREYGLLGDHILGTDFSFDIEIRYGAGAFVCGEETALIHSMEGKRGEPTLKPPFPAESGYLGKPTNVNNVETLANIPIILTKGAEWFASIGTERSKGTKVFALAGKINNVGLIEVPMGTTLREVIYEIGGGIKGGKKFKAVQTGGPSGGCLTEKHLDTPIDFDNLLAAGSMMGSGGMIVMDEDDCMVSVARFYLDFTVEESCGKCTPCRIGNKRLLELLNKITEGRGTEKDLDTLATLGRVIKDTALCGLGQTSPNPVLSTLDNFRDEYLEHVRDKTCRAKQCKSLLTYTINPELCIGCHLCAKNCPADAISGLVRKPHVIHPEKCIKCGMCMARCKFKAILVC”: the protein production entry is “failed”. Regarding “MKILVIGAGPAGLVFASQLKQARPLWAIDIVEKNDEQEVLGWGVVLPGRPGQHPANPLSYLDAPERLNPQFLEDFKLVHHNEPSLMSTGVLLCGVERRGLVHALRDKCRSQGIAIRFESPLLEHGELPLADYDLVVLANGVNHKTAHFTEALVPQVDYGRNKYIWYGTSQLFDQMNLVFRTHGKDIFIAHAYKYSDTMSTFIVECSEETYARARLGEMSEEASAEYVAKVFQAELGGHGLVSQPGLGWRNFMTLSHDRCHDGKLVLLGDALQSGHFSIGHGTTMAVVVAQLLVKALCTEDGVPAALKRFEERALPLVQLFRGHADNSRVWFETVEERMHLSSAEFVQSFDARRKSLPPMPEALAQNLRYALQRLEHHHHHH”, the protein production result is listed as “not failed”. For “MKILYIVLDGAADSPTSPRKTLEEASKPNIDSLGSHAVCGMVYTVKPGVAPQSDYATLSLLGYNPDEYYPGRGPLEAFGAGIEMRRGDIALRANFATVDPGTLRIIDRRVGRSLTSREARELASAVDGMELEDGEGTALFRATIGHRGVLVLRHRSKPLSDAISNTDPAYERRGRFSVALEKYEPFIKLSNPLVEDEAAVLAARMLNEFTLKAVEILDSHPVNLAREKRGLLKANAILSRDAGGLPEEKPPSFQERFGLRGASIVEMVVERGISRYIGLDDIRVEIEGRAREEVYREEAARAVEALETHDLVYVHLKGPDEPGHDGSFEGKIRAVEDIDKHFFAPLLDRLSSAGLEPAFVVTSDHATPWDVGAHSGDPVPLMISHQSIQ” the value was “failed”. To “MKINKIDTRHGTANQSTFSHGNCLPYTGFPWGMNYFSPSTGAARGAWWFHPEDRTFEGYRITHQPSPWMGDFSHLTMTPVAGPLPETSLWHTVSSYRPEESTFNPTQLKITQLRYQITSQLIPSMYGGILSMNYQNLSLKDNGLMLHLPGSYELQQLDDYSLELSIINFAGCEDENFTFYLKFTADQPFVLSGNLSDEDSSVRLDFKAAKQVQIHFATSFISKEQAALNLEREQDNSAETYLENAESAWNNLFSRIEIEHHNQQEVSTFYHNLYRSFLFPQTFYEFDQEHQKIHYDTSSKTVKKGPLYTNNGFWDTFRTVYPLYSLIAVDEYGDMLEGFLNSYRATGFLPKWLSPDERGLMPGTLIDAVIADAASKNIRPDLMPEFLEAMKKGATSQSENSNYGRRGTKDYLKLGYVPLTHHESVNHTLDYAFSDYCISQVAKQTGDKEISDFYAHQAKDYQNIFDSETGFMRAKDADGNFRADFLDIRWGRDYAEGSAWQTSWSVLHDFAGLIKLHGSRENFENKLIELCNQRPNFNVEGYGFEIHEMSEMAAIEFGQVAISNQPSFHYPYLFSYIGKPWMATPLIKNLLTETFNDSPKGYPGDEDNGTMAAWYIFSSLGFYPVTAASNQYVLGIPLWDKARINLSSGQQLTILAEPNAPQQVFVNQITFTDKKVNDTFIKHEELIKGGTLKFDLGIVPNPLKYTNEQLPYSLTEN” belongs “failed”.
